The record followed here is paper PMC4066749, “A sequence-based approach for prediction of CsrA/RsmA targets in bacteria with experimental validation in Pseudomonas aeruginosa”.

In data set [1] the target is T1, RsmA-R44A (UniProt O69078 1-61, R44A). The experiment in a line: analytical SEC; no significant interaction, RNA largely unbound. Particulars: protein: recombinant; chain copies: 2; unstructured.
Data set [2] concerns the target T2, RsmA (UniProt O69078 1-61). The experiment in a line: analytical SEC; 50 uM protein, 25 uM RNA. Particulars: protein: recombinant; tags: His tag; chain copies: 2; unstructured.
For data set [3], the target named is T2, RsmA. The experiment in a line: ITC; 298 K; 1:1 single-site fit; 50 mM NaCl, 25 mM potassium phosphate pH 7.0; ITC at 298 K (125 uM RNA into 5-10 uM protein); SEC on Superdex 75 with 50 uM protein and 25 uM RNA, temperature not stated. Particulars: protein: recombinant; tags: His tag; chain copies: 2; hairpin. On the technique in general: ITC needs no label: the signal is the heat of the interaction.

Data set [4] addresses T1, RsmA-R44A. Nature of the data set: analytical SEC; binding virtually eliminated; 50 uM protein, 25 uM RNA; 50 mM NaCl, 25 mM potassium phosphate pH 7.0; ITC at 298 K (125 uM RNA into 5-10 uM protein); SEC on Superdex 75 with 50 uM protein and 25 uM RNA, temperature not stated. The settings on record: protein: recombinant; chain copies: 2; hairpin.

Regarding GAAGAGGAGCUUUCAUG (ssRNA) [algU RBS RNA], the binding result is “no binding” with RsmA-R44A [1] and “binds” with RsmA [2].
CCCCGAAGGAUCGGGG (structured_RNA) [RsmZ-2 (RsmZ stem-loop 2)]: the Kd in the data set with RsmA [3] came to 276 ± 25 nM. For the same molecule, the binding result with RsmA-R44A [4] is listed as “no binding”.

Usually Kd stands for the equilibrium constant for the complex coming apart.
